Values quoted from earlier work as cited in article PMC8044391.

Molecular target: ICAM-1 (Homo sapiens) (UniProt P05362)
Sequence (P05362 28-480): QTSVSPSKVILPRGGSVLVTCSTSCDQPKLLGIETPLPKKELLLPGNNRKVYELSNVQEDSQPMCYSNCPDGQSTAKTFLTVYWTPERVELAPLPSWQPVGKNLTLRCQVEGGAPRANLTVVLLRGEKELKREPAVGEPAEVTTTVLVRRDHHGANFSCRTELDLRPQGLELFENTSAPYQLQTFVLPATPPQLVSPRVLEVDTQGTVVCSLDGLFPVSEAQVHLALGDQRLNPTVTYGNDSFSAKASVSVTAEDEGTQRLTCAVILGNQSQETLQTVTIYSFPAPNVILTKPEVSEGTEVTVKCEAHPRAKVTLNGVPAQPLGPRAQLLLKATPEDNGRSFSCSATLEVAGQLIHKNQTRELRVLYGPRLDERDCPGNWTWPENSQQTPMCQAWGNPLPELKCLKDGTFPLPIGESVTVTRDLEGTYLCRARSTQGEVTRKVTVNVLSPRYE

Sequence of integrin αLβ2 (P20701 26-1090): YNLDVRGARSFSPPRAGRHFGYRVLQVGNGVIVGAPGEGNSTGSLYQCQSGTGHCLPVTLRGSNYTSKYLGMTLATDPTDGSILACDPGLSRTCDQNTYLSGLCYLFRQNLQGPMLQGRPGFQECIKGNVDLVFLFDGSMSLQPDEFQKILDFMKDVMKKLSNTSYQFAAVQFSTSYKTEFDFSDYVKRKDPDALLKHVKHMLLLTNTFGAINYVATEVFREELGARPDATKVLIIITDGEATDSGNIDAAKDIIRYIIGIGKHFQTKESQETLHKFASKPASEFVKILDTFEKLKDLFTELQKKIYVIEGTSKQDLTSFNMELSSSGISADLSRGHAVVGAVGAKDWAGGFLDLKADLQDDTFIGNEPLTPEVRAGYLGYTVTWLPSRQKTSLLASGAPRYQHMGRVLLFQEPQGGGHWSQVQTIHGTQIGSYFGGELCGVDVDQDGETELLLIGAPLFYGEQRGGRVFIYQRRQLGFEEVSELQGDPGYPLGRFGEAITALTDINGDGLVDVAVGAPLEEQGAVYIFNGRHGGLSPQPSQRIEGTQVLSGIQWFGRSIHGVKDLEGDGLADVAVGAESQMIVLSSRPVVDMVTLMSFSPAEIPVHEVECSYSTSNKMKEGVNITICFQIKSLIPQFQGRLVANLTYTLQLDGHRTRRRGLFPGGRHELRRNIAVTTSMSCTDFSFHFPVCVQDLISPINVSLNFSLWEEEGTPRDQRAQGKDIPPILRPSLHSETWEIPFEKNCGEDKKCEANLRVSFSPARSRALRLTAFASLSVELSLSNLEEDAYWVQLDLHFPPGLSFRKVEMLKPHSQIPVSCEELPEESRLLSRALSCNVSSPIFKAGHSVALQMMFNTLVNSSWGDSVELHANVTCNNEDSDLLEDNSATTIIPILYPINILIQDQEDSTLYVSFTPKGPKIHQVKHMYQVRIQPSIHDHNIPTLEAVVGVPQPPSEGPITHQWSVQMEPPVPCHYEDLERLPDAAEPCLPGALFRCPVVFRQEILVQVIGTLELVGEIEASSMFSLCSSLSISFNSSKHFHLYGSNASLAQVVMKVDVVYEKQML
Sequence of integrin αLβ2 (P05107 23-700, further chain): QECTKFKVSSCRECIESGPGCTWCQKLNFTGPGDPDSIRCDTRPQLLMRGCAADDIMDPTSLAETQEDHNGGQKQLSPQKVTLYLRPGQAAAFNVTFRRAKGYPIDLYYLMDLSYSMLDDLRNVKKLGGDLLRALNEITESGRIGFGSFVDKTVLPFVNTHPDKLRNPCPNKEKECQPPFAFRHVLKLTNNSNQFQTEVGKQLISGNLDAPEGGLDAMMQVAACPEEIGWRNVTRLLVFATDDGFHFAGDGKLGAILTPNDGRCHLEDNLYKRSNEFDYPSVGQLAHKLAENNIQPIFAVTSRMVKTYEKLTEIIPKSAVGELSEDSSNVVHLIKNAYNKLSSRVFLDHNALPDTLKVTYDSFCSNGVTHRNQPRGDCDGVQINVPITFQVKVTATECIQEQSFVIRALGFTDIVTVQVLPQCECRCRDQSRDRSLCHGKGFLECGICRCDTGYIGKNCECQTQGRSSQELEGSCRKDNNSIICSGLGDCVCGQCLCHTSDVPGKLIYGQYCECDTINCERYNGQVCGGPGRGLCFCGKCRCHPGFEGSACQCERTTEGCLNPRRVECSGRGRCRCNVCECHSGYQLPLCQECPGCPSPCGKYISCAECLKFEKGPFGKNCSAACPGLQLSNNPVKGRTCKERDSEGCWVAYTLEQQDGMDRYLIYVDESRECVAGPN

## integrin αLβ2 (from UniProt P20701)
  Kd: 26 µM
